Reference: patent publication US20100291074A1 (COLUMBIA UNIVERSITY IN THE CITY OF NEW YORK, published 2010)

How the values were obtained:
monomeric Aβ42 = target: T1, monomeric Aβ42 (UniProt P05067 672-713); experiment: SPR (BIAcore 3000), Aβ immobilized on a CM5 chip, CypD in the mobile phase, 25° C.; monomeric Aβ42
T1 construct: domain: Aβ(1-42); Immobilized on a CM5 chip by amine coupling for SPR; also called Aβ(1-42); amyloid beta
Protocol: (§1) Aβ(1-40) and Aβ(1-42), including monomeric and oligomeric Aβ, were used in the binding assay. The kinetic parameters evaluating binding affinity were analyzed as described in the Examples. […] The evaluating curves (red line) were overlaid with experimental data.
(§2) The monomeric and oligomeric Aβ were prepared as described and characterized by atomic force microscopy. SPR studies were performed on a BIAcore 3000 system (BIAcore AB, Uppsala, Sweden). Aβ (500 μg/ml) was immobilized using the standard amino coupling on a research-grade CM5 sensor chip. […] The binding curves were analyzed with the global fitting model using BIA evaluation version 4.0.1 (BIAcore AB).

oligomeric Aβ42 = target: T2, oligomeric Aβ42 (UniProt P05067 672-713); experiment: SPR (BIAcore 3000), Aβ immobilized on a CM5 chip, CypD in the mobile phase, 25° C.; oligomeric Aβ42
T2 construct: domain: Aβ(1-42); Oligomer; Immobilized on a CM5 chip for SPR; also called Aβ(1-42); amyloid beta
Protocol: as §1, §2

monomeric Aβ40 = target: T3, monomeric Aβ40 (UniProt P05067 672-711); experiment: SPR (BIAcore 3000), Aβ immobilized on a CM5 chip, CypD in the mobile phase, 25° C.; monomeric Aβ40
T3 construct: domain: Aβ(1-40); Immobilized on a CM5 chip by amine coupling for SPR; also called Aβ(1-40); amyloid beta
Protocol: as §1, §2

oligomeric Aβ40 = target: T4, oligomeric Aβ40 (UniProt P05067 672-711); experiment: SPR (BIAcore 3000), Aβ immobilized on a CM5 chip, CypD in the mobile phase, 25° C.; oligomeric Aβ40
T4 construct: domain: Aβ(1-40); Oligomer; Immobilized on a CM5 chip for SPR; also called Aβ(1-40); amyloid beta
Protocol: as §1, §2

T2 sequence (P05067 672-713 limits assumed): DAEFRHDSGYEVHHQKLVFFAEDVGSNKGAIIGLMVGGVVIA
T1 sequence (P05067 672-713 limits assumed): as above
T3 sequence (P05067 672-711 limits assumed): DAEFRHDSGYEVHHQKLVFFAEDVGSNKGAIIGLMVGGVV
T4 sequence (P05067 672-711 limits assumed): as above

- Kd (monomeric Aβ42): 164 nM
- Kd (oligomeric Aβ42): 4 nM
- Kd (monomeric Aβ40): 1700 nM
- Kd (oligomeric Aβ40): 227 nM
B1: purified recombinant human CypD protein (Cyclophilin D) (enzyme)
chain: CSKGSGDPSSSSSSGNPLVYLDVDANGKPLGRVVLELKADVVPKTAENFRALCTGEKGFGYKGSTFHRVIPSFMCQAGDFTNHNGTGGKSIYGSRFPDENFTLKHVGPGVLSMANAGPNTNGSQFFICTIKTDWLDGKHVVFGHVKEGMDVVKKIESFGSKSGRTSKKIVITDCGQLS
notes: also called human mitochondrial CypD protein; PPIF
